Source: US20250326862A1, “Antibody or Fragment Thereof Binding Specifically to Mertk, and Anti-Tumor Agent” (Chiome Bioscience Inc., priority 2021, published 2025)
Entries after “also recorded” stand apart in the source; their conditions may differ.

Columns and labels:
[1] = molecular target: T1, binding of MerTK with TULP1 (Homo sapiens, UniProt Q12866); experiment: Test 6: ligand binding inhibition ELISA, MerTK with TULP1; settings: human MerTK 5 μg/ml immobilized; biotinylated TULP1 40 nM; FIGS. 14 and 16
T1 construct: purchased R&D Systems
T1 sequence (Q12866 26-499 limits assumed): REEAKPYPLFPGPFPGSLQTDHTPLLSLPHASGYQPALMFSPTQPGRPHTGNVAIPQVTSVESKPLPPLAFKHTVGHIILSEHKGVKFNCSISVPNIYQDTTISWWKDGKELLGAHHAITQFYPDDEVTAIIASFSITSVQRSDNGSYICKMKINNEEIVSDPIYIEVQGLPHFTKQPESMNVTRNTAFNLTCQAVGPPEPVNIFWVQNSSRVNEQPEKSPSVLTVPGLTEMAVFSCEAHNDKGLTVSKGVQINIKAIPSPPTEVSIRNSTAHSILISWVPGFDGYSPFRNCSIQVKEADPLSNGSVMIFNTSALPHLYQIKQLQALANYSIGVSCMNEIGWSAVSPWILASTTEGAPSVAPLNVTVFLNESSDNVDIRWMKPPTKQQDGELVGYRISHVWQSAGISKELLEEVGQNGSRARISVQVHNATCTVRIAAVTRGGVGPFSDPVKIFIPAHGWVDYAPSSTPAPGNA
Experimental: (§1) “20A77” and “24A1” were evaluated for the ability to inhibit binding of MerTK with various ligands. The MerTK ligands used were human Gas6 (R&D Systems) and human TULP1 (abcam plc.) which were respectively biotinylated using “Biotin Labeling Kit-NH” (Dojindo Laboratories Co., Ltd.). […] TULP1 is a ligand correlated with ocular toxicity, and an antibody having an activity to inhibit binding of MerTK with TULP1 may have ocular toxicity. Thus, an antibody having high inhibitory activity of binding to Gas6 and low inhibitory activity of binding to TULP1 may be an efficacious anti-tumor agent having low ocular toxicity.
(§2) The ligand binding inhibition test was carried out as indicated below. First, human MerTK (R&D Systems) was added to an ELISA plate (Nunc) at a concentration of 5 μg/ml and immobilized overnight at room temperature. After removing the immobilization solution, 1% BSA/PBS was added for blocking reaction and left to stand at room temperature for 1 hour. After the blocking, the plate was washed with 0.05% Tween 20/PBS and an antibody solution was added for primary reaction at room temperature for 1 hour. […] After washing, a chromogenic substrate solution of TMB (Dako) was added for chromogenic reaction for 20 minutes, 1 N sulfuric acid was added to terminate the reaction and the absorbance was measured at 450 nm.

human MerTK [2] = molecular target: T2, human MerTK (Homo sapiens, UniProt Q12866); experiment: MerTK phosphorylation inhibition test in hMerTK-EL4 cells stimulated with human Gas6; type: cell-based; design: expressed in transfected cells; host or cells: mouse lymphoma cell line EL4 (hMerTK-EL4); settings: hMerTK-EL4, antibody 1 hour, then 200 nM human Gas6 for 10 minutes; phospho-Mer ELISA; FIG. 1
T2 sequence (Q12866 21-999): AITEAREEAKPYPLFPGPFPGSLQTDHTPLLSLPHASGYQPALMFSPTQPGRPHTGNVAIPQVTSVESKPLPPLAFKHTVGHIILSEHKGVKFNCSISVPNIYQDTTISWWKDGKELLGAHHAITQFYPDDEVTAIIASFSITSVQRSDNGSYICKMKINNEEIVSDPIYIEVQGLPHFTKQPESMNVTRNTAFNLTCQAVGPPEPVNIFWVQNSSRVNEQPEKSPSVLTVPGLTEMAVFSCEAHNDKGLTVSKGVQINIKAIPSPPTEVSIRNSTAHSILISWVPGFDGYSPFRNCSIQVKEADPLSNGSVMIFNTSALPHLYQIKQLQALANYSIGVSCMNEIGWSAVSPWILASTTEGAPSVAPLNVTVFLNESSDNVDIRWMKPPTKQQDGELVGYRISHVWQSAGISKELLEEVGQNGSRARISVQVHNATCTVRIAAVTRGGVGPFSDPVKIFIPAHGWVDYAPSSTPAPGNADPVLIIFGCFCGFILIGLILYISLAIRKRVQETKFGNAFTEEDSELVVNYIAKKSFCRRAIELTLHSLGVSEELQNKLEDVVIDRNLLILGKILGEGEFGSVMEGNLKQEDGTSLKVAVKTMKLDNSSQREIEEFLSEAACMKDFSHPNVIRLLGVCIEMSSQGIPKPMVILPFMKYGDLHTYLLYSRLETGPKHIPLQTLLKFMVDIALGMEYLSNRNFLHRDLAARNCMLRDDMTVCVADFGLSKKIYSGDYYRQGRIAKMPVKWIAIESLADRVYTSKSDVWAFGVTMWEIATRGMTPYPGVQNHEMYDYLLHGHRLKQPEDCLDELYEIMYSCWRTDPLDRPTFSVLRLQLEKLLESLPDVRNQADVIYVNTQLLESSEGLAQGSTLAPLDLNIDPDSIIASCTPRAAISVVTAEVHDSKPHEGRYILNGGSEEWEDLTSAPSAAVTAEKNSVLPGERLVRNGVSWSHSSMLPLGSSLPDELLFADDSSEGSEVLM
Experimental: On the basis of the procedures indicated below, the clones were evaluated for MerTK phosphorylation inhibitory activity. Higher activity means higher binding ability to MerTK.
The cells (hMerTK-EL4) stably expressing human MerTK were cultured in a “DMEM high glucose medium” (Thermo Fisher Scientific Inc.) containing 10% FBS. After the cultivation, the cells were washed in PBS, suspended in a serum-free medium, plated in a 96-well plate at 1×10^6 cells/well and incubated at 37° C. for 3 hours. After the incubation, the respective clones were added, the hMerTK-EL4 was allowed to react for 1 hour, stimulated with 200 nM human Gas6 (R&D Systems) for 10 minutes and centrifuged and collected. The collected hMerTK-EL4 was lysed in a cell lysis solution, and the level of the phosphorylated MerTK protein in the lysate was determined using “Human Phospho-Mer DuoSet IC ELISA” (R&D Systems). The cell lysis solution used contained 1% “IGEPAL CA-630” (SIGMA) and 1×concentration of “Halt Protease and Phosphatase Inhibitor Single-Use Inhibitor Cocktail” (Thermo Fisher Scientific Inc.) added to MilliQ water.

[3] = molecular target: T3, binding of MerTK with Gas6 (Homo sapiens, UniProt Q12866); experiment: Test 6: ligand binding inhibition ELISA, MerTK with Gas6; settings: human MerTK 5 μg/ml immobilized; biotinylated Gas6 10 nM; FIGS. 13 and 15
T3 construct: purchased R&D Systems
T3 sequence (Q12866 26-499 limits assumed): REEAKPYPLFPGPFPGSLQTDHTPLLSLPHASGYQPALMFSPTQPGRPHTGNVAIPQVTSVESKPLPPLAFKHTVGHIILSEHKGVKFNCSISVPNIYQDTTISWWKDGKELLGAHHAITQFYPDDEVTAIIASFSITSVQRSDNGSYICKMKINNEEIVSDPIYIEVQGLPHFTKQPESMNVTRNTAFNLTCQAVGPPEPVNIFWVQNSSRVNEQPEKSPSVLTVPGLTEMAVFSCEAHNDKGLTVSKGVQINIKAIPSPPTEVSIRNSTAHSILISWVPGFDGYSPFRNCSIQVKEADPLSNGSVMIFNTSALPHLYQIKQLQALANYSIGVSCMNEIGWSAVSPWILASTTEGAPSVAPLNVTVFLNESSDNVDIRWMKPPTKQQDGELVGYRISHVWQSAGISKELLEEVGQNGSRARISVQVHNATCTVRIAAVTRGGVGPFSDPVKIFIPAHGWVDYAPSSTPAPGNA
Experimental: as §1, §2

[4] = Test 8: toxic dose by in vivo ocular toxicity test, TB staining; design: species or system Balb/c mice; settings: 3 or 10 mg/kg intravenous twice a week, eyes removed day 30
Experimental: The ocular toxicity test was carried out using Balb/c mice. The mice intravenously received a solvent or “m20A77_mIgG1” at a dose of 3 or 10 mg/kg at a frequency of twice a week. At day 30 after the first administration, eyes were removed, fixed with a Karnovsky's fixative and then subjected to embedding in a resin, preparation of sections and TB staining carried out by Applied Medical Research Laboratory.

human MerTK [5] = molecular target: T2, human MerTK; experiment: Test 9: antigen binding activity of humanized antibodies by ELISA; settings: compared with the original human chimeric antibody (m20A77_hIgG1LALA or 24A1_hIgG1LALA, respectively); FIG. 21
Experimental: The ELISA was performed according to the procedures indicated below. First, the respective antigens were added to an ELISA plate (Nunc) at a concentration of 5 μg/ml and immobilized overnight at room temperature. After removing the immobilization solution, 1% BSA/PBS was added for blocking reaction and left to stand at room temperature for 1 hour. After the blocking, the plate was washed with 0.05% Tween 20/PBS and an antibody solution was added for primary reaction at room temperature for 1 hour. After washing, an HRP-labelled antibody (GE Healthcare) was added for secondary reaction for 1 hour. After washing, a chromogenic substrate solution of TMB (Dako) was added for chromogenic reaction for 10 minutes, 1 N sulfuric acid was added to terminate the reaction and the absorbance was measured at 450 nm.
The prepared antibodies were checked for antigen binding activity by ELISA.

B1: 24A1: anti-MerTK mouse monoclonal antibody clone; VH SEQ ID NO: 9, VL SEQ ID NO: 13 (antibody, V domains shown)
VH: EVQLVESGGGLVQPKGSLKLSCAASGFTFNVYDMHWVRQAPGEGLEWVARIRSKSSNYATNYADSVKDRFTISRDDSQSMLYLQMNNLQTEDTAIYYCVRDGSHYYYALDYWGQGTSVTVSS
VL: DIQMTQTTSSLSASLGDRVTISCRASQDINNYLNWYQQKLDGTVKLLIYYSSRLHSGVPSRFSGSGSGTDYSLTISNLEQEDIATYFCQQGKMFPWTFGGGTKLEIK
inhibition of binding of TULP1 with MerTK [1]: did not inhibit binding of TULP1 with MerTK
MerTK phosphorylation inhibitory activity (human MerTK [2]): inhibited binding of Gas6 with MerTK and MerTK phosphorylation in a concentration dependent manner
inhibition of binding of Gas6 with MerTK [3]: inhibited binding of Gas6 with MerTK; also recorded: strongly inhibited binding of Gas6 with MerTK

B2: m20A77_mIgG1: mouse IgG1 antibody of m20A77 (antibody, V domains shown)
VH: QVQLQQPGTELVKPGASVKLSCRASGNTFTSYWMHWVKQRPGQGLEWIGNINPSSGGTNYNEKFKSKATLTVDKSSSTAYMQLSSLTSEDSAVYYCARLNYYGFDGFAFWGQGTLVTVSA
VL: DIKMTQSPSSMYASLGERVTITCKASQDINSYLSWFQQKPGKSPKTLIYRANRLVSGVPSRFSGSGSGQDYSLTISSLEYEDMGIYYCLQYDEFPFTFGSGTKLEIK
TB-positive granules (retinal pigment epithelium) ([4]; FIG. 19): no increase in TB-positive granules was observed
abnormal shrinkage of the outer nuclear layer ([4]; FIG. 20): no abnormal shrinkage of the outer nuclear layer was observed

B3: hz20A77_hIgG1LALA: humanized antibody derived from m20A77 with human IgG1 constant region having LALA sequence (antibody, V domains shown)
VH: QVQLVQSGAEVKKPGSSVKVSCKASGNTFTSYWMHWVRQAPGQGLEWIGNINPSSGGTNYNEKFKSRVTITVDKSTSTAYMELSSLRSEDTAVYYCARLNYYGFDGFAFWGQGTLVTVSS
VL: DIQMTQSPSSLSASVGDRVTITCKASQDINSYLSWFQQKPGKAPKTLIYRANRLVSGVPSRFSGSGSGTDYTLTISSLQPEDFATYYCLQYDEFPFTFGGGTKVEIK
antigen binding activity (reactivity) in ELISA (human MerTK [5]): reactivity similar to or higher than original human chimeric antibodies

B4: hz24A1_hIgG1LALA: humanized antibody derived from 24A1 with human IgG1 constant region having LALA sequence (antibody, V domains shown)
VH: EVQLVESGGGLVQPGGSLRLSCAASGFTFNVYDMHWVRQAPGKGLEWVARIRSKSSNYATNYADSVKDRFTISRDDAKNSLYLQMNSLRAEDTAVYYCVRDGSHYYYALDYWGQGTTVTVSS
VL: DIQMTQSPSSLSASVGDRVTITCRASQDINNYLNWYQQKPGKAPKLLIYYSSRLHSGVPSRFSGSGSGTDYTLTISSLQPEDFATYYCQQGKMFPWTFGGGTKVEIK
antigen binding activity (reactivity) in ELISA (human MerTK [5]): reactivity similar to or higher than original human chimeric antibodies
